Patent US20180066070

B1: Sirtuin (silent mating type information regulation 2 homolog) 1 (protein)
chain: MADEAALALQPGGSPSAAGADREAASSPAGEPLRKRPRRDGPGLERSPGEPGGAAPEREVPAAARGCPGAAAAALWREAEAEAAAAGGEQEAQATAAAGEGDNGPGLQGPSREPPLADNLYDEDDDDEGEEEEEAAAAAIGYRDNLLFGDEIITNGFHSCESDEEDRASHASSSDWTPRPRIGPYTFVQQHLMIGTDPRTILKDLLPETIPPPELDDMTLWQIVINILSEPPKRKKRKDINTIEDAVKLLQECKKIIVLTGAGVSVSCGIPDFRSRDGIYARLAVDFPDLPDPQAMFDIEYFRKDPRPFFKFAKEIYPGQFQPSLCHKFIALSDKEGKLLRNYTQNIDTLEQVAGIQRIIQCHGSFATASCLICKYKVDCEAVRGDIFNQVVPRCPRCPADEPLAIMKPEIVFFGENLPEQFHRAMKYDKDEVDLLIVIGSSLKVRPVALIPSSIPHEVPQILINREPLPHLHFDVELLGDCDVIINELCHRLGGEYAKLCCNPVKLSEITEKPPRTQKELAYLSELPPTPLHVSEDSSSPERTSPPDSSVIVTLLDQAAKSNDDLDVSESKGCMEEKPQEVQTSRNVESIAEQMENPDLKNVGSSTGEKNERTSVAGTVRKCWPNRVAKEQISRRLDGNQYLFLPPNRYIFHGAEVYSDSEDDVLSSSSCGSNSDSGTCQSPSLEEPMEDESEIEEFYNGLEDEPDVPERAGGAGFGTDGDDQEAINEAISVKQEVTDMNYPSNKS
In the case of B1, the “deacetylation in vitro (SDS-PAGE, blots for acetyl-lysine and PCSK9)” value (Recombinant PCSK9) is reported as “PCSK9 is deacetylated by SIRT1 in vitro” and the “increase in fluorescence caused by deacetylation of fluorogenic PCSK9 peptide” value (acetyl-PCSK9-AMC peptide) is reported as “SIRT1 deacetylates fluorogenic PCSK9 peptide”.
